Laboratory results reported in patent US20050129695A1 (published 2005).

B1: anti-Aβ monoclonal antibody C705 (antibody, V domains shown)
VH: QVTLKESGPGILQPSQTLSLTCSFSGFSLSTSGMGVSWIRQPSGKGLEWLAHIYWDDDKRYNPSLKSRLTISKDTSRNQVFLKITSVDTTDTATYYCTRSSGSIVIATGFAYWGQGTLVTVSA
VL: DVMMTQTPLSLPVSLGDQASISCRSSQSLVHSNGNTYLEWYMQKPGQSPMLLIYKVSNRFSGVPDRFSGSGSGTDFTLKISSVEAEDLGVFYCFQGSRVPLTFGAGTKLELKR
notes: Tested as protein G purified IgG, detected with goat anti-mouse IgG; also called C705 mAb
B2: anti-Aβ monoclonal antibody C706 (antibody, V domains shown)
VH: QVQLQQSGPELMKPGASVKISCKATGYTFSTSWIEWIKQRPGHGLEWIGEVLPGSGKSNHNANFKGRATFTADTASNTAYMQLSSLTSEDSAVYYCAREGSNNNALAYWGQGTLVTVSA
VL: QIVLTQSPAIMSASPGEKVTMTCSASSSVSYMHWYQQKSGTSPKRWIYDSSRLASGVPSRFSGGGSGTSYSPTISNMEAEDAATYFCQNWRSSPTFGAGTKLELKR
notes: Tested as protein G purified IgG, detected with goat anti-mouse IgG; also called C706 mAb
B3: anti-Aβ monoclonal antibody C701 (antibody, V domains shown)
VH: EGQLQQSGAELVRSGASLKLSCTASGFNIKDHYVHWVRQRPEQGLDWIGWIAPKNGYSESAPKFQGKASMTADTSSNTVYLQLSSLTSEDTAVYYCFAGFYDSSLYWGQGTTLTVSS
VL: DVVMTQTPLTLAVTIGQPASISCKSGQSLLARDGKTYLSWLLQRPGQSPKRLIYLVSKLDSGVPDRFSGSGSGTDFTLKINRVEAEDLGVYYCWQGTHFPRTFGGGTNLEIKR
notes: Tested as protein G purified IgG, detected with goat anti-mouse IgG; also called C701 mAb
B4: anti-Aβ monoclonal antibody C707 (antibody, V domains shown)
VH: EVQLQQSGPDLVKPGASVKTSCKTSGYSFTEYIMSWVRQSHGKSLEWIGSINPNTGGSRYNQKFKGKATLTVDKSSSTAYMEFRSLTSEDSAVYYCARGDFDYWGQGTTLTVSS
VL: DIVMTQAAFSNPVTLGTSASISCRSSKNLLHSNGITYLYWYLQRPGQSPQLLISRVSNLASGVPNRFSGSESGTDFTLRISRVEAEDVGVYYCAQLLELPFTFGSGTKLEIKR
notes: Tested as protein G purified IgG, detected with goat anti-mouse IgG; also called C707 mAb

target: T1, Aβ38 peptide (1-38) (UniProt P05067 672-709); test: BIAcore 3000, antibody amine-coupled to CM5, peptide injected; qualitative
T1 construct: domain: Aβ38 (1-38 peptide); Injected over immobilized antibodies in BIAcore; also called 1-38 peptide
Protocol: (§1) BIAcore 3000, CM5 sensor surface, amine coupling kit, HEPES buffered saline (HBS, 10 mM HEPES 150 mM NaCl, pH7.4 with 3 mM EDTA and 0.005% Tween-20) and 10 mM sodium acetate pH 4.5 were purchased from Biacore, Inc. (Piscataway, N.J.). Anti-Aβmonoclonal antibodies (100 ug/mL) were dialyzed against HBS diluted 1:10 with water. Then, the dialyzed mAb solution was diluted 1:10 into 10 mM sodium acetate pH 4.5. The CM5 sensor surface was equilibrated in the BIAcore 3000 with HBS. Each antibody was immobilized onto a flow cell using the immobilization wizard provided in the operating software and the protocols supplied with the amine coupling kit. The wizard was set to immobilize 2500 RU of antibody. Typically 2000-3000 RU were actually immobilized.
(§2) For each mAb response, data as a function of time were collected (FIG. 46). From the sensorgram, report points are taken 10 seconds prior to the injection of the peptide, 10 seconds prior to the completion of the association phase, and 60 seconds into the dissociation phase. […] These calculations are made possible by assuming that 1 RU=1 pg of peptide (or protein)/mm².
(§3) Due to the potentially multiple aggregation states of the 1-38 and 1-42 peptides, a quantitative analysis of the binding constants is not possible. However, a qualitative analysis is possible. FIG. 47 ranks the mAbs as a function of binding ratio and fraction remaining on the surface after 60 seconds reflecting the stability of the complex. From this analysis C705 and C707 appear to be capable of binding to “monomeric” peptide, where as C701 and C706 requires the peptide to be aggregated to some extent before they can bind.

T1 sequence (P05067 672-709 limits assumed): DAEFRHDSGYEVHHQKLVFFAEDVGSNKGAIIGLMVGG

Row | binding result | Binder
1 | binds | B1
2 | binds | B2
3 | binds | B3
4 | binds | B4

target: T2, human Aβ1-42 (human, UniProt P05067 672-713); test: as above
T2 construct: domain: Aβ1-42; same polypeptide, aggregation state differs; also called Aβ42; 1-42 peptide
Protocol: as §1, §2, §3

T2 sequence (P05067 672-713 limits assumed): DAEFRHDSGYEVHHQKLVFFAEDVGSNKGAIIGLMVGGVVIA

Row | binding result | Binder
5 | binds | B1
6 | binds | B2
7 | binds | B3
8 | binds | B4
